Article doi:10.1101/2021.12.16.472899 (bioRxiv, 2021)

T1: NdhA (Arabidopsis thaliana (endogenous in the …, UniProt Q37165 1-360))
T1 sequence (looked up): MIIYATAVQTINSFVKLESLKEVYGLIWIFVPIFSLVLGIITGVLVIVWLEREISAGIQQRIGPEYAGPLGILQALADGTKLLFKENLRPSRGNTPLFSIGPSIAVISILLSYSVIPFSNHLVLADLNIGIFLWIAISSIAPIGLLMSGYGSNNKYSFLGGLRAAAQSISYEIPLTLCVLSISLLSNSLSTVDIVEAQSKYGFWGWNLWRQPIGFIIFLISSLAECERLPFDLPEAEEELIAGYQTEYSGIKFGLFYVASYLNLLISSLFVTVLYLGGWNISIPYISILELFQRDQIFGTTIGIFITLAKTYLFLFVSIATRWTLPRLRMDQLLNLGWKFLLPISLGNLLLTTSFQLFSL

B1: PnsL1 (natural protein, UniProt O80634 81-238, looked up)
chain: AEEIPKSYSPFVDREDGYSYYYPSDWREFDFRAHDSAFKDRYLQLQNVRVRFIPTEKNDIHEVGPMEEVVYDLVKHKFAAPNQVATIYDMKERVEDGKNYYTFEYGLRTPIYATTSFATVAVGNNRYYTLIVGANERRWRKVKKQLQVVADSLKILQI
B2: PnsB1 (natural protein, UniProt Q9S9N6 45-461, looked up)
chain: VNLKKKNNPWLDPFDSGEDPDNEYGSLFADGKQDEDPRPPDNPDNPYGFLKFPKGYTVELASLPLKIRGDVRRCCCVISGGVYENLLFFPTIQLIKDRYPGVQVDILTTERGKQTYELNKNVRWANVYDPDDHWPEPAEYTDMIGLLKGRYYDMVLSTKLAGLGHAAFLFMTTARDRVSYIYPNVNSAGAGLMLSETFTAENTNLSELGYSMYTQMEDWLGRPFRSVPRTPLLPLRVSISRKVKEVVAAKYRNAGAVTGKFIVIHGIESDSKASMQSKGDADSLLSLEKWAKIIKGVRGFKPVFVIPHEKERENVEDFVGDDTSIVFITTPGQLAALINDSAGVIATNTAAIQLANARDKPCIGLFSSEEKGKLFVPYAEEKSNCVIIASKTGKLADIDIGTVKNAMQVFEGSLALV
B3: NdhD (natural protein, UniProt P26288 1-500, looked up)
chain: MNDFPWLTIIVVFPISAGSLMLFLPHRGNKVNKWYTICICILELLLTTYAFCYNFKMDDPLIQLSEDYKWIDFFDFYWRMGIDGLSIGTILLTGFITTLATLAAFPVTRDSRFFHFLMLAMYSGQIGSFSSRDLLLFFIMWELELIPVYLLLSMWGGKKRLYSATKFILYTAGSSIFLLIGVLGISLYGSNEPTLNLELLANKSYPVTLEILFYIGFLIAFAVKSPIIPLHTWLPDTHGEAHYSTCMLLAGILLKMGAYGLVRINMELLPHAHSMFSPWLLVVGTIQIIYAASTSPGQRNLKKRIAYSSVSHMGFIIIGISSITDPGLNGAILQIISHGFIGAALFFLAGTSYDRIRLVYLDEMGGMAISIPKIFTMFTILSMASLALPGMSGFIAEFIVFFGIITSQKYFLISKIFIIFVMAIGMILTPIYLLSMLRQMFYGYKLINIKNFSFFDSGPRELFLSISILLPIIGIGIYPDFVLSLASDKVESILSNYFYG
B4: PnsL5 (natural protein)
chain: not shown
B5: Lhca2 (natural protein, UniProt Q9SYW8 44-257, looked up)
chain: RAVAADPDRPIWFPGSTPPEWLDGSLPGDFGFDPLGLSSDPDSLKWNVQAEIVHCRWAMLGAAGIFIPEFLTKIGILNTPSWYTAGEQEYFTDKTTLFVVELILIGWAEGRRWADIIKPGSVNTDPVFPNNKLTGTDVGYPGGLWFDPLGWGSGSPAKLKELRTKEIKNGRLAMLAVMGAWFQHIYTGTGPIDNLFAHLADPGHATIFAAFTPK
B6: PnsL2 (natural protein, UniProt Q9XI73 69-190, looked up)
chain: WGTRSFIKEKYFMPGLSPEDAAARIKQTAEGLRDMREMLDHMSWRYVIFYIRLKQAYLSQDLTNAMNILPESRRNDYVQAANELVENMSELDFYVRTPKVYESYLYYEKTLKSIDNVVEFLA
B7: Lhca6 (natural protein, UniProt Q8LCQ4 34-270, looked up)
chain: SSTGGRLMRERLVVVRAGKEVSSVCEPLPPDRPLWFPGSSPPEWLDGSLPGDFGFDPLGLGSDPDTLKWFAQAELIHSRWAMLAVTGIIIPECLERLGFIENFSWYDAGSREYFADSTTLFVAQMVLMGWAEGRRWADLIKPGSVDIEPKYPHKVNPKPDVGYPGGLWFDFMMWGRGSPEPVMVLRTKEIKNGRLAMLAFLGFCFQATYTSQDPIENLMAHLADPGHCNVFSAFTSH
B8: PnsB2 (natural protein, UniProt Q94AQ8 18-348, looked up)
chain: SSISAPQTQTINTEKLEDKFGRKGIKFSESNNIPMVELKVRNGSSLKLSLSDAHVLSYKPKVYWKDEGFEEVLYTVDGDESRGGVGVVIVNGEEPKGGSSVISGCDWSVKDTDSDAIDALQIELSCTAGVLDITYIVSLYPVSMATALVVKNNGRKPVTLKPGIMSYLRFKKRSGAGIQGLKGCSYCPNPPLSSPFELLSPSEAMKAESSGWFGSEEGEKPGIWAVEDSVITLLEKKMSRIYGAPPAERLKAVYNTPPSKFETIDQGRGLFFRMIRIGFEEMYVGSPGSMWDKYGKQHYFVCTGPTSMLVPVDVASGETWRGAMVIEHDNL
B9: PnsB3 (natural protein, UniProt Q9LU21 49-204, looked up)
chain: AISTAPASQPPAADEPDEPPAVDFAFVHSVLLPDGTPDVHWRRANGGQKLRDIMLDSNIELYGPYSKPLSNCAGVGTCATCMVEIVNGKELLNPRTDIEKEKLKRKPKNWRLACQTNVGNPDSTGLVVIQQLPEWKAHEWNIPKNIPNDDDLETST
B10: Lhca5 (natural protein, UniProt Q9C639 33-256, looked up)
chain: AAGGGINPTVAVERATWLPGLNPPPYLDGNLAGDYGFDPLGLGEDPESLKWYVQAELVHSRFAMLGVAGILFTDLLRTTGIRNLPVWYEAGAVKFDFASTKTLIVVQFLLMGFAETKRYMDFVSPGSQAKEGSFFFGLEAALEGLEPGYPGGPLLNPLGLAKDVQNAHDWKLKEIKNGRLAMMAMLGFFVQASVTHTGPIDNLVEHLSNPWHKTIIQTLFTSTS

Assays:
Assay in all cases: cryo-EM structure
[1] = target: T1, NdhA
[2] = target: B3
[3] = target: NdhF (Arabidopsis thaliana (endogenous in the …, UniProt P56752 1-746))
[4] = target: B1
[5] = target: B8
[6] = target: B2

NdhF (Arabidopsis thaliana, sequence (P56752 whole entry): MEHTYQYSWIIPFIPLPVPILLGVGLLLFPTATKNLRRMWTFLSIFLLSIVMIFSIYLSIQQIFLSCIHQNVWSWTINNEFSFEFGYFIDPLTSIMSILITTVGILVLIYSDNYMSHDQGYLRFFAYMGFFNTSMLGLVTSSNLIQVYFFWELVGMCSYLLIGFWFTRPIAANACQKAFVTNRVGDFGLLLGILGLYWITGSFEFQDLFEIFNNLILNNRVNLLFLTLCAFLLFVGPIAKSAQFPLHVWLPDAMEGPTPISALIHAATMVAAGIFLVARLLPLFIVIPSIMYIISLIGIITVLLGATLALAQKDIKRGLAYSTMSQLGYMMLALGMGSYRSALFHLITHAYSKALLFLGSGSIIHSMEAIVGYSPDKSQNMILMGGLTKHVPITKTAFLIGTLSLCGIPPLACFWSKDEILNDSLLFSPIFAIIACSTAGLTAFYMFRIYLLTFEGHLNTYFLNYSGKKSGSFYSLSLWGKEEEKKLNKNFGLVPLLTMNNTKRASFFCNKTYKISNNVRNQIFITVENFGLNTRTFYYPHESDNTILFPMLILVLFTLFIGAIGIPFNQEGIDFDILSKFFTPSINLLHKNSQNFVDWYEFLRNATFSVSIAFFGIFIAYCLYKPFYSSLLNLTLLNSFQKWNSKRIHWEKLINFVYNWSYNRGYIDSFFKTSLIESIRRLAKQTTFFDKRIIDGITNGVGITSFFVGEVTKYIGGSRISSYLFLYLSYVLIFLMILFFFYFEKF

## B1
[1]
  binding result: binds

## B2
[2]
  binding result: binds
[3]
  binding result: binds

## B3
[3]
  binding result: binds

## B4
[2]
  binding result: binds

## B5
[3]
  binding result: binds

## B6
[4]
  binding result: binds
[1]
  binding result: binds

## B7
[5]
  binding result: binds
[3]
  binding result: binds

## B8
[3]
  binding result: binds

## B9
[6]
  binding result: binds
[5]
  binding result: binds
[3]
  binding result: binds

## B10
[6]
  binding result: binds
